B1: mTurquoise2-CNA35 (domain or fragment)
chain: ARDISSTNVTDLTVSPSKIEDGGKTTVKMTFDDKNGKIQNGDMIKVAWPTSGTVKIEGYSKTVPLTVKGEQVGQAVITPDGATITFNDKVEKLSDVSGFAEFEVQGRNLTQTNTSDDKVATITSGNKSTNVTVHKSEAGTSSVFYYKTGDMLPEDTTHVRWFLNINNEKSYVSKDITIKDQIQGGQQLDLSTLNINVTGTHSNYYSGQSAITDFEKAFPGSKITVDNTKNTIDVTIPQGYGSYNSFSINYKTKITNEQQKEFVNNSQAWYQEHGKEEVNGKSFNHTVHNINANAGIEGTVKGELKVLKQDKDTKA
notes: CNA35: domains N1 and N2 of the A-region of Staphylococcus aureus collagen adhesion protein, amino acids 30-344; Order: His-tag, thrombin cleavage site, mTurquoise2, flexible linkage of about 20 amino acids, CNA35; 65.2 kDa; also called FP-CNA35; N-terminal fusion of mTurquoise2 to CNA35; not shown: mTurquoise2, N-terminal, kept
B2: CNA35-EGFP (domain or fragment)
chain: B1 chain
notes: CNA35: domains N1 and N2 of the A-region of Staphylococcus aureus collagen adhesion protein, amino acids 30-344; Order: His-tag, thrombin cleavage site, CNA35, flexible linkage of about 20 amino acids, EGFP; 65.1 kDa; also called CNA35-FP; C-terminal fusion of EGFP to CNA35; not shown: EGFP, C-terminal, kept
B3: EGFP-CNA35 (domain or fragment)
chain: B1 chain
notes: CNA35: domains N1 and N2 of the A-region of Staphylococcus aureus collagen adhesion protein, amino acids 30-344; Order: His-tag, thrombin cleavage site, EGFP, flexible linkage of about 20 amino acids, CNA35; 65.0 kDa; also called N-terminal fusion of EGFP to CNA35; not shown: EGFP, N-terminal, kept
B4: CNA35-mTurquoise2 (domain or fragment)
chain: B1 chain
notes: CNA35: domains N1 and N2 of the A-region of Staphylococcus aureus collagen adhesion protein, amino acids 30-344; Order: His-tag, thrombin cleavage site, CNA35, flexible linkage of about 20 amino acids, mTurquoise2; 65.0 kDa; also called CNA35-FP; C-terminal fusion of mTurquoise2 to CNA35; not shown: mTurquoise2, C-terminal, kept
B5: CNA35-LSSmOrange (domain or fragment)
chain: B1 chain
notes: CNA35: domains N1 and N2 of the A-region of Staphylococcus aureus collagen adhesion protein, amino acids 30-344; Order: His-tag, thrombin cleavage site, CNA35, flexible linkage of about 20 amino acids, LSSmOrange; 64.7 kDa; also called CNA35-FP; C-terminal fusion of LSSmOrange to CNA35; not shown: LSSmOrange, C-terminal, kept
B6: CNA35-tdTomato (domain or fragment)
chain: B1 chain
notes: CNA35: domains N1 and N2 of the A-region of Staphylococcus aureus collagen adhesion protein, amino acids 30-344; Order: His-tag, thrombin cleavage site, CNA35, flexible linkage of about 20 amino acids, tdTomato; 93.1 kDa; also called CNA35-FP; C-terminal fusion of tdTomato to CNA35; not shown: tdTomato, C-terminal, kept
B7: mAmetrine-CNA35 (domain or fragment)
chain: B1 chain
notes: CNA35: domains N1 and N2 of the A-region of Staphylococcus aureus collagen adhesion protein, amino acids 30-344; Order: His-tag, thrombin cleavage site, mAmetrine, flexible linkage of about 20 amino acids, CNA35; 64.3 kDa; also called FP-CNA35; N-terminal fusion of mAmetrine to CNA35; not shown: mAmetrine, N-terminal, kept
B8: mCherry-CNA35 (domain or fragment)
chain: B1 chain
notes: CNA35: domains N1 and N2 of the A-region of Staphylococcus aureus collagen adhesion protein, amino acids 30-344; Order: His-tag, thrombin cleavage site, mCherry, flexible linkage of about 20 amino acids, CNA35; 64.6 kDa; also called FP-CNA35; N-terminal fusion of mCherry to CNA35; not shown: mCherry, N-terminal, kept
B9: LSSmOrange-CNA35 (domain or fragment)
chain: B1 chain
notes: CNA35: domains N1 and N2 of the A-region of Staphylococcus aureus collagen adhesion protein, amino acids 30-344; Order: His-tag, thrombin cleavage site, LSSmOrange, flexible linkage of about 20 amino acids, CNA35; 64.6 kDa; also called FP-CNA35; N-terminal fusion of LSSmOrange to CNA35; not shown: LSSmOrange, N-terminal, kept
B10: CNA35-mAmetrine (domain or fragment)
chain: B1 chain
notes: CNA35: domains N1 and N2 of the A-region of Staphylococcus aureus collagen adhesion protein, amino acids 30-344; Order: His-tag, thrombin cleavage site, CNA35, flexible linkage of about 20 amino acids, mAmetrine; 64.4 kDa; also called CNA35-FP; C-terminal fusion of mAmetrine to CNA35; not shown: mAmetrine, C-terminal, kept
B11: tdTomato-CNA35 (domain or fragment)
chain: B1 chain
notes: CNA35: domains N1 and N2 of the A-region of Staphylococcus aureus collagen adhesion protein, amino acids 30-344; Order: His-tag, thrombin cleavage site, tdTomato, flexible linkage of about 20 amino acids, CNA35; 92.5 kDa; also called FP-CNA35; N-terminal fusion of tdTomato to CNA35; not shown: tdTomato, N-terminal, kept
B12: CNA35-mCherry (domain or fragment)
chain: B1 chain
notes: CNA35: domains N1 and N2 of the A-region of Staphylococcus aureus collagen adhesion protein, amino acids 30-344; Order: His-tag, thrombin cleavage site, CNA35, flexible linkage of about 20 amino acids, mCherry; 64.7 kDa; also called CNA35-FP; C-terminal fusion of mCherry to CNA35; not shown: mCherry, C-terminal, kept

Biological target: T1, Rat tail collagen type I (rat, UniProt P02454 152-1207; P02466 86-1125)
T1 construct: collagen alpha-1(I) chain, rat; collagen alpha-2(I) chain, rat; Immobilised as a collagen matrix formed on pH neutralisation; source: bought: Sigma-Aldrich, cat. no; C7661
T1 sequence (P02454 152-1207, chain 1 of 2): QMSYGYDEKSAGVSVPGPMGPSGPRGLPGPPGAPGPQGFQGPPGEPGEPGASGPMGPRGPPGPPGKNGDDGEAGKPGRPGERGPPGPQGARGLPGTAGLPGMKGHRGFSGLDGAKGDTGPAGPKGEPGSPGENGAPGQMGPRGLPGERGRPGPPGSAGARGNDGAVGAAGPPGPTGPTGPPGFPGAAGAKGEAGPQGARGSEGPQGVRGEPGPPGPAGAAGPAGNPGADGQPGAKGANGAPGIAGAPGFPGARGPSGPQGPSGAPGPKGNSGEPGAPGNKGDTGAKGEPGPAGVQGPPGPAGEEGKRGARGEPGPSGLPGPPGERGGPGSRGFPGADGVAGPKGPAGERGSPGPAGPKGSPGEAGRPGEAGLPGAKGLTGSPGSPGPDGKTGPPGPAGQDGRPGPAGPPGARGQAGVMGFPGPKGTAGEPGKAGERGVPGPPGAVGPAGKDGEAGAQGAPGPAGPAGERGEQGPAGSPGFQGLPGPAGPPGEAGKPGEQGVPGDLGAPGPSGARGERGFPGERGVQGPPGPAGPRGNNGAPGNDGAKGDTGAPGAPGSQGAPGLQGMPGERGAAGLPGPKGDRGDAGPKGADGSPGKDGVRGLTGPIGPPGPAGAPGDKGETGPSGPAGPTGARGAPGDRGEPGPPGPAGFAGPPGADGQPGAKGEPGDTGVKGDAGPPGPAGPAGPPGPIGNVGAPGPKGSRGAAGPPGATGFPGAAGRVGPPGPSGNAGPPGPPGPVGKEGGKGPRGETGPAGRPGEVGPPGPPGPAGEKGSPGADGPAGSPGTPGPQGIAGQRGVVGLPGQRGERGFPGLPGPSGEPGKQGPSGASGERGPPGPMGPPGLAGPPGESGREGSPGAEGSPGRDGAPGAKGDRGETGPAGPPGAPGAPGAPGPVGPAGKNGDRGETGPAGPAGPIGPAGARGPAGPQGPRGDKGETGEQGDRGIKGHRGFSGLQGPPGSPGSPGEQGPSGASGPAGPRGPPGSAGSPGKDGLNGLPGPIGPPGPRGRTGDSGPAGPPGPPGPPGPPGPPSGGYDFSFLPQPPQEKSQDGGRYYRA
T1 sequence (P02466 86-1125, chain 2 of 2): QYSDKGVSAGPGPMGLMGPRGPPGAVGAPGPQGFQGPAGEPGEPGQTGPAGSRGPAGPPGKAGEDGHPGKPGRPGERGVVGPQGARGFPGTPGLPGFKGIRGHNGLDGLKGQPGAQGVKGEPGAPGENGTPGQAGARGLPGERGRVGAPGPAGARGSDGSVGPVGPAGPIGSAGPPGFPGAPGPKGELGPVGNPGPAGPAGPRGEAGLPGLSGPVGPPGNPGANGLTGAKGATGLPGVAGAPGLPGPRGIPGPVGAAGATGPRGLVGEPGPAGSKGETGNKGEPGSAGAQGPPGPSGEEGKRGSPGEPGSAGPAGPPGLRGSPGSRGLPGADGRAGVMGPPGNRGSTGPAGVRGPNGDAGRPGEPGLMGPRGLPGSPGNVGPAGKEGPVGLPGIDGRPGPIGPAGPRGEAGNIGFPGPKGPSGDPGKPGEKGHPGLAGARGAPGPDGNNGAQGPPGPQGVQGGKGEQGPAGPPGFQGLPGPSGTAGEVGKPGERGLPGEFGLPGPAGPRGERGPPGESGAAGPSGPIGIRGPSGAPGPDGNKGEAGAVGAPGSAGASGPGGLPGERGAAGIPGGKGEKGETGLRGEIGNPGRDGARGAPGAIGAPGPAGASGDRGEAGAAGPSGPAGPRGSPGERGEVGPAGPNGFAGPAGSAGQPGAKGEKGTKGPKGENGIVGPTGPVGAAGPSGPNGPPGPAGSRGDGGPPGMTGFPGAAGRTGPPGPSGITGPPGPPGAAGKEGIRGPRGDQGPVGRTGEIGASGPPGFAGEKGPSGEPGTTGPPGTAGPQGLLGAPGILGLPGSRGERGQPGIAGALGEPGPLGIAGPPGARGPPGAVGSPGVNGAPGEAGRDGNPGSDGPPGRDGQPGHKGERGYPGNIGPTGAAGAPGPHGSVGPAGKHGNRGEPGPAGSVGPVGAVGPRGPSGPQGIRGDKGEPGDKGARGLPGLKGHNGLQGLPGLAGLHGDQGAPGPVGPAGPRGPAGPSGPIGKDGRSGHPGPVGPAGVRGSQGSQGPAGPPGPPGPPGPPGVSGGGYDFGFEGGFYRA
Assay: solid-phase collagen binding assay (fluorescence of bound probe, plate reader); rat tail collagen type I or BSA immobilised in wells of a 96-well plate, blocked with 2% BSA; probe dilutions 0.1–50 µM, 1–1.5 hours at room temperature; 20 mM HEPES pH 7.2, 150 mM NaCl; apparent overall Kd
Conditions: both partners purified

Binder | Kd
B1 | ~1000 nM
B2 | ~1000 nM
B3 | ~1000 nM
B4 | ~1000 nM
B5 | ~1000 nM
B6 | ~1000 nM
B7 | ~1000 nM
B8 | ~1000 nM
B9 | ~1000 nM
B10 | ~1000 nM
B11 | ~1000 nM
B12 | ~1000 nM

— PMC4260915, “Colorful Protein-Based Fluorescent Probes for Collagen Imaging” (PLoS ONE, 2014)
